Reference: the nanobody polyreactivity screen of Harvey et al. (2022)

Test: yeast display, Sf9 membrane polyspecificity reagent, FACS + sequencing; frameworks hold sequencing errors
Outline: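 Polyreactivity labels are assigned by the sorting gate from which each nanobody was recovered. The gates were low and high (top ~1%), set on anti-HA fluorescence for expression and streptavidin fluorescence for reagent binding. Before sorting, galactose-induced (36–48 hours) yeast display cells were stained for 1 hour at 4 °C with 10% biotinylated, detergent-solubilized Sf9 membrane reagent.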

Sequence | polyreactivity (PSR sort gate)
QVQLVESGGGLDQAGGTLRLSSAASGFTFGSYAMRWYRQAHGKERELVAAITRSGSTTYYADSVKGRFTISRDNAKNTFFLQMNSLKPEDTAVDYCNAYTVRSYRFDYWGQGTQVTVSS | high polyreactivity
QVQLVESGGGLVQAGGSLRLSCAASGSTLRYNTMGWYRQAPGTERELVAAIRGSGSSTYYADSVKGRFTISRDNAKNTVYLQMNSLKPEDTAVYYCAARPRWYTYTRQEYDYWGQGTQVTVSS | high polyreactivity
QVQLVESGGGLDQAGGSLRLSSAASGFIFWFNAMRWYRQAPGTERELVATISRSDTSTYYADSVKGRFTISRDNAKNSVYLQMNSLKPEDTAVYYCATDVRETWLPEYYWGQGTEVTVSS | low polyreactivity
QVQLVESGGGLVQAGGSLRLSCAASGLTLTYYAMGWYRQAPGKERELVAAISSSGGSTYYADSVKGRFTISRDNAKNTVYLQMNSLKPEDTAVYYCAATRVSWTGRDDYWGQGTQVTVSS | high polyreactivity
QVQLVESGGGLVQAGGSLRLSCAASGITFRYYAMGWYRPAPGKERELVASITSGGVNTYYADSVKGRFTISRDNAKNTVYLQMNSLKPEDTAVYYCATTYVGETLTGPGDYWGQGTQVTVSS | low polyreactivity
QVQLVESGGGLVQAGGSLRLSCAASGITFYDYAMGWYRQAPGKEREFFARITASGARTYYADSVKGRFTISRDNAKNTVYLQMNSLKPEDTAVYYCAVRGGRPSRRHYDKYDYWGQGTQVTVSS | low polyreactivity
QDQLGDSGGCLVQAGGSLRLSCAASGITFKNYAMVWYRQAPGKEREIVAAISASGGRTYYADSVKGRFTISRDNAKNTVYFPMNSLIPEDTAVYYCNAVYIGSRSRYEYDYWGQGSQVTVSS | high polyreactivity
QVQLVESGGGLVQAGGSLRLSCAASGSIFGGYAMGGYRQAPGKERELVAAISWSGDSTYYADSVKGRFTISRDNANNTDYLQMNSLKPEDTAVYYCAAYYLAWYAFRYKTVGSAMDYWGQGTQVTVSS | low polyreactivity
QVQLVESGGGLVQAGGSLRLSCAASGRIFYLYAMGWYRQAPGTEREMVAAITWSGGSTTYADSVKGRFTISRDNAKNTVYLQMNSLKPEDTAVYYCYADGWIFPSFSPMDYWGQGTQVTVSS | low polyreactivity
QVQLVESGGGLVQAGGSLRLSCAASGIIFDYYAMGWYRQAPGKVREFVATITSGGSTTYADSVKGRFTISRDNAKNTVYIEMNSLKPEDTAVYYCAARTYWFPDIYPGLGRDYWGQGTQVTVSS | low polyreactivity
QVQLVESGGGLVQAGGSLRLSCAASGSTFGVYTMGWYIQAPGKERELVAAITKSGGSTYYADSVKGRFTISRDNAKNTVYLQMNSLKPEDTAVYYCNTDYGRYLYYRYGYWGQGTQVTVSS | low polyreactivity
QVQLVESGGGLVQAGGSLRLSCAASGRTFADYVMGWYRQAPGKERELVAAITSSGGSTYYADSVKGRFTISRDNAKNTVYLQMNSLKPEDTAVYYCAAQQSPSVDYWGQGTQVTVSS | low polyreactivity
QVQLVESGGGLVQAGGSLRLSCAASGRIFGRYALGWYRQAPGKERELVAAISSSGGSTYFADSVKGRFTISRDNAKNTVYLQMNSLKPEDTAGYYCAADVSAKRYYWGQGTQVTVSS | high polyreactivity
QVQLVESGGGLVQAGGSLRLSCAASGSTFDYYDMGWYRQAPGKERELVAAISSGGDSTYYADSVKGRFTISRDNAKNTVYLQMNSLKPEDTAVYYCAAAVYYGQSVWYYYWGQGTQVTVSS | high polyreactivity
QVQLQESGGGLVQAGGSLRLSCAASGSIFHLHIMCWYRQAPGKERESVAAISYGTSTYYADSVKGRFTICRDNAKNTVYLKMNSPKPDDTAVYYCAALFLVSKHHHYWGEGTQVTVSS | low polyreactivity
QVQLVESGGGLVQAGGSLRLSCAASGSTLYVYAMGWYRQAPGKEREFVADISWSGGSTYYADSVKGRFTISRDNAKNTVYLQMNILKPEDTAVYYCNADFTDSYWSRYDYWGQGTQVTVSS | low polyreactivity
QVQLVESGGRLVQAGGSLRLSCAASGSTYAMGWYRQAPGKERELVASITSRGGSTYYADSVKGRFTISRDNAKNTVYLQMNSLKPEDTAVYYCAARWYFSYIGYDYWGQGTQVTVSS | high polyreactivity
QVQLVESGGGLVQAGGSLRLSCAASGRIFIYKAMGWYRQAPGKERELVAAISSSGTSTYYADSVKGRFTISRDNAKNTVYLQKNSLKPEDTAVYYCNAVYNYRWYSQGYYWGQGTQVTVSS | high polyreactivity
QVQHVESGGGLVQAGGSLRLSCAASGLIFSWTAMGWYRQAPGKERELVASISYSGGRTYYADSVKGRFTISRDNAKNTVYLQMNSLKPEDTAVYYCAADTNATTDPEMDYWGQGTQVTVSS | low polyreactivity
QVQLVESGGGLVQAGGSLRLSCAASGSTFYIYAMGAYRPAPGKERELVARISGSGGSTYYADSVKGRFTISRDNAKNTGYLQMNSLKPEDTAVYYCAADDIYKYYQYYAFPYYRYVYWGHGTQVTVSS | low polyreactivity
QVQLVESGGGLVQAGGSLRLSCAASGRTFNSYAMGWYRQSPGKERELVADITSSGGSTYYADSVKGRFTISRDNAKNTVFLQMNSLIPEDTALYYCAADGYTRLPTYLRVNHRSLDYWGQGTQVTVSS | low polyreactivity
QVQLVESGGGLVQAGGRLRLSCAASGRIFVYNAMGWYRQAPGKERELVAAINYRGTRTYYADSVKGRFTISRDNAKNTVYLQLNSLKPEDTAVYYCATYLVTGGGLNVRYDYWGQGTQVTVSS | high polyreactivity

Sequence | polyreactivity (PSR sort gate)
QVQLVESGGGLVQAGGSLRLSCAASGRTFGSYAMGWYRQAPGKERELVAAITASGVRTYYADSVKGRFTISRDNAKNTVYLQMNSLKPEDTAVYYCNARRLSTVQYDYWGQGTQVTVSS | high polyreactivity
QVQLVESGGGLVQAGGSLRLSCAASGSTFYYNDMGWYRQAPGKERELVAAIRTSGSTNYADSVKGRFTISRDNAKNTVYLQMNSLKPEDTAVYYCNAVVRHWFQGWYGRGDDYWGQGTQVTVSS | low polyreactivity
QVQLVESGGGLVQAGGSLRLSCAASGRIFVVYAMGWYRQAPGTETELVANITISGGRTYYADSVKGRFTISRDNAKNTVYVQMNSLKPEDTAVYYCAATSGALYYGYEYWGQGTQVTVSS | low polyreactivity
QVQLVESGGGLVQAGGSLRLSCAASGRIFRRYAMGWYRQAPGKERELVAAISSGGSTYYADSVKGRFTISRDNEKNTVYLQLNSLKPEDSAVYYCNAKVGAYLNYGYWGQGTQVTVSS | low polyreactivity
QVQLVESGGGLVQAGGSLRLSCAASGRTFGLNAMGWYRQAPGKERELVAAITYSGGSTYYADSVKGRFTISRDNAKNTVYLQMNSLKPEDTAVYYCAKEVQTYWYHYYYWGQGTQVTVSS | high polyreactivity
QVQLVESGGGLVQAGGSLRLSCAASGFIFWHYTMGWYRQAPGKERELVAASTWTGGSTYYADSVKGRFTISRDNEKNTVYLQMNSLKPEETAVYYCNADYPGEGITYGYWGQGTQVTLSS | low polyreactivity
QVQLVESGGGLVQPGGSLRLSCAASGRILYYHAMAWYRQAPGKERELVARISSGGSTNYADSVKGRFTISRDNAKNTVYLQMNSLKPEDTAVSYCAVAKGGLAWGVGRGGRYDYWGQGTQVTVSS | low polyreactivity
QVQLVESGGGLVQAGGSLRLSGAASGSIFPGYAMGWYRQPPGKERELVATITWSGGSTYYADSVKGRFTISRDNAKNTVYLQMNSLKPEDSAVYYCAAERSWYTGFARDYDYWGQGTQVTVSS | low polyreactivity
QVQLVESGGGLVQAGGSLRLSCAASGRIFGRYAMGWYRQAPGKERELVAVISARGARTYYADSVKGRFTISRDNAKHTVYLQMNSLKPEDTAVYYCAVDQYATDDYWGQGTQVTVSS | high polyreactivity
QVQLVESGGGLVQAGGTLRLSCAASGYIFPAYVMGWYRQAPGKERELVAAITSGGGTYYADSVKGRFTISRDNAKYTVYLQMNSLKPEDTAVYYCAARYTQRPRRNYWGQGTQVTVSS | high polyreactivity
QVQLVESGGGLVQAGGSLRLSCAASGSIFDVYTMGWYRQAPGKERELVAAISQSTGSTYYAASVKGRFTISRDNAKNTVYLQMNSLIPEDTAVYYCNAKFRFVTYKTPYVFWGQVTQVTVSS | low polyreactivity
QVQLGESGGGLVQAGGSLRLSCAASGRIFAWNAMGWYRQAPGKERELVAAITYNGGSTYYADSVKGRFTISRDNAKNTVYLQMNSLKPEDTAVYYCNKVTRSPAQGYGYWGQGTQVTVSS | high polyreactivity
QVQLVESGAGLVQAGGSLRLSCAASGSILKKYGMGLSRQAPGKERELVARISKSGGSTFYADSVKGRFTISRDNAKNTVYLQMNSLKPEDTAVYYCATLKYPYATSQGYDYWGQGTQVTVSS | high polyreactivity
QVQLVDSAGGLVQAGGSLSLSCAASGFIFGRYAMGWYRQAPGKERELVAVITWSGGRTYYADSVKGRFTISRDNAKNTVYLQMNSLKPEDTAVYYCAADRYPYHYGYDYWGQGTQVTVSS | high polyreactivity
QVQLVESGGGLVQAGGSLRLSCAASGFTFYRNAMGWYRQAPRKERDLVAAISDSGGRTYYADSVKGRFTISRDNAMNTVYLQMNSLIPEDTAVYYCAADTVIWWVEYEYWGQGTQVTVSS | high polyreactivity
QVQLLESGGGLVQAGGSLRLSCAASGFTFGRYAMGWYRQAPGKERELVAAINTSGDRTFYADSVKGRFTISRDNAKNTVYLQMNSLKPVDTAVYYCAADVQSWVYPGSLYYWTYDFWGQGTQVTVSS | high polyreactivity
QVQLQESVGLVQAGGLRLSCAASGSVSYQEAMGWYRQAPAKERELVATISFGANTNYADSVKGRFTISRDNAKNTVYLQMNCLKPEDTAVYYCAAESLFDDYYGYWGQGTQVTVSS | low polyreactivity
QDQLVDSGGGLVQAGGSLRLSCAASGRIIFYYTMGSYSQAPGKESELVAAINSTGSTNYADSVKGRFTISRDNAKNTVYLQMNSLKPEDTAVYYCNAGTRYIFLYPPFLGAAFDYWGQGTQVTVSS | low polyreactivity
QVHLVESGGGLVQAGGSLRLSCAASGRIFSWYTMGWYRQAPGKERELVAVITSGGTTKYADSVKGRFTISRDNAKNTVYLQMNSLKPEDTAVYYCNVAGRDYAVRWGSFDYWGQGTQVTVSS | low polyreactivity
QVQLVESGGGLVQAGGSLRLSCAASGSTSLYYAMGWYRQAPGKEREFVAAITWSGGSTYYADSVKGRFTISRDNAKNTVYLQMNSLKPEDTAVYYCAARSYGYSAGYYWGQGTQVTVSS | high polyreactivity
QVQLVELGGGLVQAGGSLRLSCAASGSIFSRNTMGWYRQAPGKERELVAGISSSGSRTYYADSVKGRFTISRDNAKNTVYLQMNSLKPEDTAVYYCNARYYWKQAADYNYWGQGTQVTVSS | low polyreactivity
